The target in this assay is tight-coupled 70S ribosome from Thermus thermophilus (Thermus thermophilus). Nature of the assay: co-sedimentation.

With “elongation factor G (EF-G), Thermus thermophilus HB8 (from UniProt Q5SHN5 1-691) (enzyme)”, the occupancy of EF-G in the complexes is 60 to 70%.

The values above are taken from PMC3272701.
